Here are results for three sequences from paper PMC11784345.

This series concerns MBP-His8-MilO (Streptoverticillium rimofaciens (Streptomyces rimofaciens)). In words: fluorescence polarization. Particulars: EMSA: 20 mM Tris-HCl pH 8.0, 100 mM KCl, 2.5 mM MgCl2, 0.2 mM DTT, 10% glycerol, salmon sperm DNA, 30 C 10 min (Fig 5 legend: room temperature); FP: 20 mM Tris …. (In general: Fluorescence polarisation rises when a labelled molecule tumbles more slowly, as on binding a larger partner.)

For the sequence “CACTATTTAATCGTGTCGCTCGGTGGTGTCCGCCGGTGCCCCGG (double strand) [OBSM1]”, the binding signal (fold decrease in affinity vs OBSWT) came to 3.
“TGTCGCCCGGTCGTATTATCTAACGGTGTCCGCCGGTGCCCCGG (double strand) [OBSM2]” gave a binding signal (fold decrease in affinity vs OBSWT) of 3.
For the sequence “TGTCGCCCGGTCGTGTCGCTCGGTGGCGCCTATCAACGCCCCGG (double strand) [OBSM3]”, the binding signal (fold decrease in affinity vs OBSWT) stood at 3.
